Experimental data from publication PMC9798831.

Key:
[1] = biological target: ShTnsC (Scytonema hofmanni)
ShTniQ;ShTnsC = biological target: T1, ShTniQ;ShTnsC (Scytonema hofmanni;Scytonema hofmanni, UniProt A0ABR8GRC6;A0ABR8GR16 1-167;1-276, |); test: cryo-EM
T1 sequence 1: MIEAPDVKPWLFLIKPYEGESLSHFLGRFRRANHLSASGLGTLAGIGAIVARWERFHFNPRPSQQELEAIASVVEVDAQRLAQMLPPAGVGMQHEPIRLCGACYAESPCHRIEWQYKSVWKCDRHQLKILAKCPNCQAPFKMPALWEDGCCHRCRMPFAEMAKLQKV
T1 sequence 2: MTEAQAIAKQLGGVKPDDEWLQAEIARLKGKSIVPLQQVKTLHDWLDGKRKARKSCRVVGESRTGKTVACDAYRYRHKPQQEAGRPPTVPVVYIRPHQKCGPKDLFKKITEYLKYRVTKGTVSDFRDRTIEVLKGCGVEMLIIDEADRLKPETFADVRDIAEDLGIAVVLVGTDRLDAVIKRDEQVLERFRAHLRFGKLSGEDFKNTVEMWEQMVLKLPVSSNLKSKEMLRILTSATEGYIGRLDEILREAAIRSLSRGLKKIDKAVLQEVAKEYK

Molecule: TniQ with alanine substitution of Trp10 (natural protein)
- site-specific transposition activity of ShCAST in E. coli (ddPCR) [1]: > 90 % reduction

Molecule: TniQ with glutamate substitution of Arg155 (natural protein)
- site-specific transposition activity of ShCAST in E. coli (ddPCR) [1]: 50 % reduction

B1: Target_69 duplex (oIQ088/oIQ089) (dsDNA)
DNA 1: GCGAAGGCTTAATCATCGTGGATGAAGCCGACCACCTCGATTACCCCACGCTTGAAGAACTGCGGATCC
DNA 2: GGATCCGCAGTTCTTCAAGCGTGGGGTAATCGAGGTGGTCGGCTTCATCCACGATGATTAAGCCTTCGC
- binding result (ShTniQ;ShTnsC): binds
